Substitutions are numbered along the chain they refer to. Names may count otherwise.
T1: human AMHRII (anti-Mullerian hormone receptor type 2) (human, UniProt Q16671 18-573)
T1 construct: whole, on cells; also called AMHR2; human AMHR2
T1 sequence (looked up): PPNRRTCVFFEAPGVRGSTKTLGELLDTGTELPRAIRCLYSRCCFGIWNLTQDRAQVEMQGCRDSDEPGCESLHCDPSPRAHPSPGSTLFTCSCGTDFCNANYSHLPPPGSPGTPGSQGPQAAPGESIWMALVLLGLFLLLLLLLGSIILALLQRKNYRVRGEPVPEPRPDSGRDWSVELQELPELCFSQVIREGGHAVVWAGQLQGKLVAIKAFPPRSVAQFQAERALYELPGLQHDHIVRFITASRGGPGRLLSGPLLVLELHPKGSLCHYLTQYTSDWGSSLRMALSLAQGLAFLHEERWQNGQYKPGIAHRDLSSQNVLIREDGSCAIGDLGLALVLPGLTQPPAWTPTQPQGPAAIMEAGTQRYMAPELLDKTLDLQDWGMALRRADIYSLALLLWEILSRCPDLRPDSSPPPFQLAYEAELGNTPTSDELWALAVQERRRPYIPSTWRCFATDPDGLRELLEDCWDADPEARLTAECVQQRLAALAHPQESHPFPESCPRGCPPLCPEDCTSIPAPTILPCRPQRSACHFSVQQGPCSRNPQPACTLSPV

B1: 31D9B3 VH1-VL2.1 hIgG1 (antibody, V domains shown)
VH: QVQLVQSGAEVKKPGASVKVSCKASGYTFTDYWVSWVRQAPGQGLEWMGEIYPKNGVSNFNEKFKGRVTMTTDTSTSTAYMELRSLRSDDTAVYYCARQRDYWGQGTLVTVSS
VL: DVVMTQSPLSLPVTLGQPASISCRSSQSLEYGSGYTYLEWYLQRPGQSPRLLIYGVSNRFSGVPDRFSGSGSGTDFTLKISRVEAEDVGVYYCFQATHDPNTFGQGTKLEIK
notes: Humanized, PTM de-risked (VL D(30C)S), human IgG1; also called 31D9B3 VH1-VL2.1 hlgG1
B2: 31D9B3 VH1-VL2.2 hIgG1 (antibody, V domains shown)
VH: B1 VH
VL: B1 VL with S33D, G34R
notes: Humanized, PTM de-risked (VL G(30D)R), human IgG1; also called 31D9B3 VH1-VL2.2 hlgG1
B3: 31D9B3 VH1.1-VL2.2 hIgG1 (antibody, V domains shown)
VH: B1 VH with N55E
VL: B1 VL with S33D, G34R
notes: Humanized, PTM de-risked, human IgG1; also called 31D9B3 VH1.1-VL2.2 hlgG1
B4: 31D9B3 VH1.1-VL2 hIgG1 (antibody, V domains shown)
VH: B1 VH with N55E
VL: B1 VL with S33D
notes: Humanized, PTM de-risked (VH N54E), human IgG1; also called 31D9B3 VH1.1-VL2 hlgG1
B5: 31D9B3 VH1.1-VL2.3 hIgG1 (antibody, V domains shown)
VH: B1 VH with N55E
VL: B1 VL with S33T
notes: Humanized, PTM de-risked, human IgG1; also called 31D9B3 VH1.1-VL2.3 hlgG1
B6: 31D9B3 VH1-VL2.3 hIgG1 (antibody, V domains shown)
VH: B1 VH
VL: B1 VL with S33T
notes: Humanized, PTM de-risked (VL D(30C)T), human IgG1; also called 31D9B3 VH1-VL2.3 hlgG1
B7: 31D9B3 VH1.1-VL2.1 hIgG1 (antibody, V domains shown)
VH: B1 VH with N55E
VL: B1 VL
notes: Humanized, PTM de-risked, human IgG1; also called 31D9B3 VH1.1-VL2.1 hlgG1
B8: 108F3D1E9 H2L2 hIgG1 (antibody, V domains shown)
VH: QLQLQESGPGLVKPSETLSLTCTVSGYSITSDFAWNWIRQPPGKGLEWMGYISFSGSTSYNPSLKSRVTISRDTSKNQFSLKLSSVTAADTAVYYCAGSRYSWFAYWGQGTLVTVSS
VL: DIQLTQSPSSLSASVGDRVTITCRASESVDTYGNSFMHWYQQKPGKPPKLLIYRASNLESGIPSRFSGSGSGTDFTLTISSLQPEDFATYYCQQSNEDPYTFGGGTKVEIK
notes: Humanized, human IgG1; also called 108F3D1E9 H2L2 hlgG1
B9: 94C4C3 H2L2 hIgG1 (antibody, V domains shown)
VH: B8 VH with F33Y, F54Y, T58I, V68I, G98R, A105D
VL: EIVLTQSPGTLSLSPGERATLSCSASESVDTYGNSFMHWYQQKPGQPPRLLIYRASSLESGIPVRFSGSGSRTDFTLTISRLEPEDFAVYYCQQSNEDPYTFGGGTKVEIK
notes: Humanized, human IgG1; also called 94C4C3 H2L2 hlgG1
B10: 94C4C3 H1L3 hIgG1 (antibody, V domains shown)
VH: B8 VH with F33Y, M49I, F54Y, T58I, R72V, G98R, A105D
VL: B9 VL with L82V, P84A, V108L
notes: Humanized, human IgG1; also called 94C4C3 H1L3 hlgG1
B11: 108F3D1E9 H2L4 hIgG1 (antibody, V domains shown)
VH: B8 VH
VL: B8 VL with Q3V, A13V, V19A, K46Q, S64A, G72R, L82V, V108L
notes: Humanized, human IgG1; also called 108F3D1E9 H2L4 hlgG1
B12: 108F3D1E9 H2L3 hIgG1 (antibody, V domains shown)
VH: B8 VH
VL: B8 VL with Q3V, K46Q, S64A, L82V
notes: Humanized, human IgG1; also called 108F3D1E9 H2L3 hlgG1
B13: 94C4C3 H1L2 hIgG1 (antibody, V domains shown)
VH: B8 VH with F33Y, M49I, F54Y, T58I, R72V, G98R, A105D
VL: B9 VL
notes: Humanized, human IgG1; also called 94C4C3 H1L2 hlgG1
B14: 108F3D1E9 H1L3 hIgG1 (antibody, V domains shown)
VH: B8 VH with M49I, R72V, G98R
VL: B8 VL with Q3V, K46Q, S64A, L82V
notes: Humanized, human IgG1; also called 108F3D1E9 H1L3 hlgG1
B15: 108F3D1E9 H2L1 hIgG1 (antibody, V domains shown)
VH: B8 VH
VL: B8 VL with L4M, P47A, I62V
notes: Humanized, human IgG1; also called 108F3D1E9 H2L1 hlgG1
B16: 108F3D1E9 H1L4 hIgG1 (antibody, V domains shown)
VH: B8 VH with M49I, R72V, G98R
VL: B8 VL with Q3V, A13V, V19A, K46Q, S64A, G72R, L82V, V108L
notes: Humanized, human IgG1; also called 108F3D1E9 H1L4 hlgG1
B17: 94C4C3 H2L3 hIgG1 (antibody, V domains shown)
VH: B8 VH with F33Y, F54Y, T58I, V68I, G98R, A105D
VL: B9 VL with L82V, P84A, V108L
notes: Humanized, human IgG1; also called 94C4C3 H2L3 hlgG1
B18: 94C4C3 H2L4 hIgG1 (antibody, V domains shown)
VH: B8 VH with F33Y, F54Y, T58I, V68I, G98R, A105D
VL: B9 VL with E1D, L13V, R49K, L82V, P84A, V108L
notes: Humanized, human IgG1; also called 94C4C3 H2L4 hlgG1
B19: 94C4C3 H2L1 hIgG1 (antibody, V domains shown)
VH: B8 VH with F33Y, F54Y, T58I, V68I, G98R, A105D
VL: B9 VL with P47A, V64D, R72G
notes: Humanized, human IgG1; also called 94C4C3 H2L1 hlgG1
B20: 108F3D1E9 H1L2 hIgG1 (antibody, V domains shown)
VH: B8 VH with M49I, R72V, G98R
VL: B8 VL
notes: Humanized, human IgG1; also called 108F3D1E9 H1L2 hlgG1
B21: 94C4C3 H1L4 hIgG1 (antibody, V domains shown)
VH: B8 VH with F33Y, M49I, F54Y, T58I, R72V, G98R, A105D
VL: B9 VL with E1D, L13V, R49K, L82V, P84A, V108L
notes: Humanized, human IgG1; also called 94C4C3 H1L4 hlgG1
B22: 108F3D1E9 H4L4 hIgG1 (antibody, V domains shown)
VH: B8 VH with L2V, P41F, V68I, S80F, K82Q, A89E
VL: B8 VL with Q3V, A13V, V19A, K46Q, S64A, G72R, L82V, V108L
notes: Humanized, human IgG1; also called 108F3D1E9 H4L4 hlgG1
B23: 108F3D1E9 H3L4 hIgG1 (antibody, V domains shown)
VH: B8 VH with L2V, P41F, V68I
VL: B8 VL with Q3V, A13V, V19A, K46Q, S64A, G72R, L82V, V108L
notes: Humanized, human IgG1; also called 108F3D1E9 H3L4 hlgG1
B24: 108F3D1E9 H4L2 hIgG1 (antibody, V domains shown)
VH: B8 VH with L2V, P41F, V68I, S80F, K82Q, A89E
VL: B8 VL
notes: Humanized, human IgG1; also called 108F3D1E9 H4L2 hlgG1
B25: 108F3D1E9 H4L3 hIgG1 (antibody, V domains shown)
VH: B8 VH with L2V, P41F, V68I, S80F, K82Q, A89E
VL: B8 VL with Q3V, K46Q, S64A, L82V
notes: Humanized, human IgG1; also called 108F3D1E9 H4L3 hlgG1
B26: 108F3D1E9 H4L1 hIgG1 (antibody, V domains shown)
VH: B8 VH with L2V, P41F, V68I, S80F, K82Q, A89E
VL: B8 VL with L4M, P47A, I62V
notes: Humanized, human IgG1; also called 108F3D1E9 H4L1 hlgG1
B27: 108F3D1E9 H3L1 hIgG1 (antibody, V domains shown)
VH: B8 VH with L2V, P41F, V68I
VL: B8 VL with L4M, P47A, I62V
notes: Humanized, human IgG1; also called 108F3D1E9 H3L1 hlgG1
B28: 108F3D1E9 H3L2 hIgG1 (antibody, V domains shown)
VH: B8 VH with L2V, P41F, V68I
VL: B8 VL
notes: Humanized, human IgG1; also called 108F3D1E9 H3L2 hlgG1
B29: 108F3D1E9 H3L3 hIgG1 (antibody, V domains shown)
VH: B8 VH with L2V, P41F, V68I
VL: B8 VL with Q3V, K46Q, S64A, L82V
notes: Humanized, human IgG1; also called 108F3D1E9 H3L3 hlgG1

biological target: T1, human AMHRII (anti-Mullerian hormone …); experiment: FACS on CHO-K1 cells over-expressing human AMHR2
Method: (§1) CHO-K1 cells over-expressed AMHR2 were harvested from flasks. 100 μl of 1×10⁶ cells/ml of cells were incubated with the humanized antibodies in 3-fold serial dilutions starting from 300 nM to 0.001 nM for 30 minutes on ice. After being washed with 200 μl of FACS buffer twice, cells were incubated with secondary antibody for 30 minutes on ice. Cells were washed with 200 μl of FACS buffer twice and analyzed by FACS.

Binder | EC50 | Top (MFI)
B1 | 5.52 nM | 10400 MFI
B2 | 0.485 nM | 22400 MFI
B3 | 0.625 nM | 14500 MFI
B4 | 0.875 nM | 16800 MFI
B5 | 145 nM | 6580 MFI
B6 | 0.331 nM | 12500 MFI
B7 | 89.7 nM | 2170 MFI
B8 | 0.68 nM | 67900 MFI
B9 | 1.42 nM | 56600 MFI
B10 | 1.45 nM | 50200 MFI
B11 | 0.65 nM | 70600 MFI
B12 | 0.74 nM | 67300 MFI
B13 | 1.46 nM | 49600 MFI
B14 | 0.82 nM | 66700 MFI
B15 | 0.55 nM | 64400 MFI
B16 | 0.88 nM | 70900 MFI
B17 | 1.32 nM | 55800 MFI
B18 | 1.01 nM | 52500 MFI
B19 | 1.31 nM | 52800 MFI
B20 | 0.82 nM | 64600 MFI
B21 | 1.21 nM | 47200 MFI

biological target: T1, human AMHRII (anti-Mullerian hormone …); experiment: FACS on Rko cells over-expressing human AMHR2
Method: as §1, with “Rko” for “CHO-K1”, “over-expressing” for “over-expressed”, “primary PTM” for “the humanized”

Binder | EC50 | Top (MFI)
B2 | 0.915 nM | 17200 MFI

biological target: T1, human AMHRII (anti-Mullerian hormone …); experiment: FACS on CHO-K1 cells over-expressing human AMHR2; remark: another data set of the same source
Method: as §1

Binder | EC50 | Top (MFI)
B22 | 0.65 nM | 70600 MFI
B23 | 0.88 nM | 70900 MFI
B24 | 0.68 nM | 67900 MFI
B25 | 0.74 nM | 67300 MFI
B26 | 0.55 nM | 64400 MFI
B27 | 0.74 nM | 65400 MFI
B28 | 0.82 nM | 64600 MFI
B29 | 0.82 nM | 66700 MFI
